B1: GpH7-A5/GpH7-B3 variant K334_20W/GpL16-k0 (antibody, human IgG1, kappa)
heavy 1: not shown
heavy 2: not shown
light: DIVMTQSPLSLPVTPGEPASISCQASESLVHSNRNTYLHWYLQKPGQSPQLLIYKVSNRFSGVPDRFSGSGSGTDFTLKISRVEAEDVGVYYCSQNTHVPPTFGQGTKVEIERTVAAPSVFIFPPSDEQLKSGTASVVCLLNNFYPREAKVQWKVDNALQSGNSQESVTEQDSKDSTYSLSSTLTLSKADYEKHKVYACEVTHQGLSSPVTKSFNRGEC
notes: copies: 1 + 1 + 2
B2: GpH7-A5/GpH7-B3 variant L234_01G/GpL16-k0 (antibody, human IgG1, kappa)
heavy 1: not shown
heavy 2: not shown
light: DIVMTQSPLSLPVTPGEPASISCQASESLVHSNRNTYLHWYLQKPGQSPQLLIYKVSNRFSGVPDRFSGSGSGTDFTLKISRVEAEDVGVYYCSQNTHVPPTFGQGTKVEIERTVAAPSVFIFPPSDEQLKSGTASVVCLLNNFYPREAKVQWKVDNALQSGNSQESVTEQDSKDSTYSLSSTLTLSKADYEKHKVYACEVTHQGLSSPVTKSFNRGEC
notes: copies: 1 + 1 + 2
B3: GpH7-A5/GpH7-B3 variant L234_02A/GpL16-k0 (antibody, human IgG1, kappa)
heavy 1: not shown
heavy 2: not shown
light: DIVMTQSPLSLPVTPGEPASISCQASESLVHSNRNTYLHWYLQKPGQSPQLLIYKVSNRFSGVPDRFSGSGSGTDFTLKISRVEAEDVGVYYCSQNTHVPPTFGQGTKVEIERTVAAPSVFIFPPSDEQLKSGTASVVCLLNNFYPREAKVQWKVDNALQSGNSQESVTEQDSKDSTYSLSSTLTLSKADYEKHKVYACEVTHQGLSSPVTKSFNRGEC
notes: copies: 1 + 1 + 2
B4: GpH7-A5/GpH7-B3 variant L234_03V/GpL16-k0 (antibody, human IgG1, kappa)
heavy 1: not shown
heavy 2: not shown
light: DIVMTQSPLSLPVTPGEPASISCQASESLVHSNRNTYLHWYLQKPGQSPQLLIYKVSNRFSGVPDRFSGSGSGTDFTLKISRVEAEDVGVYYCSQNTHVPPTFGQGTKVEIERTVAAPSVFIFPPSDEQLKSGTASVVCLLNNFYPREAKVQWKVDNALQSGNSQESVTEQDSKDSTYSLSSTLTLSKADYEKHKVYACEVTHQGLSSPVTKSFNRGEC
notes: copies: 1 + 1 + 2
B5: GpH7-A5/GpH7-B3 variant L234_04F/GpL16-k0 (antibody, human IgG1, kappa)
heavy 1: not shown
heavy 2: not shown
light: DIVMTQSPLSLPVTPGEPASISCQASESLVHSNRNTYLHWYLQKPGQSPQLLIYKVSNRFSGVPDRFSGSGSGTDFTLKISRVEAEDVGVYYCSQNTHVPPTFGQGTKVEIERTVAAPSVFIFPPSDEQLKSGTASVVCLLNNFYPREAKVQWKVDNALQSGNSQESVTEQDSKDSTYSLSSTLTLSKADYEKHKVYACEVTHQGLSSPVTKSFNRGEC
notes: copies: 1 + 1 + 2
B6: GpH7-A5/GpH7-B3 variant L234_05P/GpL16-k0 (antibody, human IgG1, kappa)
heavy 1: not shown
heavy 2: not shown
light: DIVMTQSPLSLPVTPGEPASISCQASESLVHSNRNTYLHWYLQKPGQSPQLLIYKVSNRFSGVPDRFSGSGSGTDFTLKISRVEAEDVGVYYCSQNTHVPPTFGQGTKVEIERTVAAPSVFIFPPSDEQLKSGTASVVCLLNNFYPREAKVQWKVDNALQSGNSQESVTEQDSKDSTYSLSSTLTLSKADYEKHKVYACEVTHQGLSSPVTKSFNRGEC
notes: copies: 1 + 1 + 2
B7: GpH7-A5/GpH7-B3 variant L234_06M/GpL16-k0 (antibody, human IgG1, kappa)
heavy 1: not shown
heavy 2: not shown
light: DIVMTQSPLSLPVTPGEPASISCQASESLVHSNRNTYLHWYLQKPGQSPQLLIYKVSNRFSGVPDRFSGSGSGTDFTLKISRVEAEDVGVYYCSQNTHVPPTFGQGTKVEIERTVAAPSVFIFPPSDEQLKSGTASVVCLLNNFYPREAKVQWKVDNALQSGNSQESVTEQDSKDSTYSLSSTLTLSKADYEKHKVYACEVTHQGLSSPVTKSFNRGEC
notes: copies: 1 + 1 + 2
B8: GpH7-A5/GpH7-B3 variant L234_07I/GpL16-k0 (antibody, human IgG1, kappa)
heavy 1: not shown
heavy 2: not shown
light: DIVMTQSPLSLPVTPGEPASISCQASESLVHSNRNTYLHWYLQKPGQSPQLLIYKVSNRFSGVPDRFSGSGSGTDFTLKISRVEAEDVGVYYCSQNTHVPPTFGQGTKVEIERTVAAPSVFIFPPSDEQLKSGTASVVCLLNNFYPREAKVQWKVDNALQSGNSQESVTEQDSKDSTYSLSSTLTLSKADYEKHKVYACEVTHQGLSSPVTKSFNRGEC
notes: copies: 1 + 1 + 2
B9: GpH7-A5/GpH7-B3 variant L234_09D/GpL16-k0 (antibody, human IgG1, kappa)
heavy 1: not shown
heavy 2: not shown
light: DIVMTQSPLSLPVTPGEPASISCQASESLVHSNRNTYLHWYLQKPGQSPQLLIYKVSNRFSGVPDRFSGSGSGTDFTLKISRVEAEDVGVYYCSQNTHVPPTFGQGTKVEIERTVAAPSVFIFPPSDEQLKSGTASVVCLLNNFYPREAKVQWKVDNALQSGNSQESVTEQDSKDSTYSLSSTLTLSKADYEKHKVYACEVTHQGLSSPVTKSFNRGEC
notes: copies: 1 + 1 + 2
B10: GpH7-A5/GpH7-B3 variant L234_10E/GpL16-k0 (antibody, human IgG1, kappa)
heavy 1: not shown
heavy 2: not shown
light: DIVMTQSPLSLPVTPGEPASISCQASESLVHSNRNTYLHWYLQKPGQSPQLLIYKVSNRFSGVPDRFSGSGSGTDFTLKISRVEAEDVGVYYCSQNTHVPPTFGQGTKVEIERTVAAPSVFIFPPSDEQLKSGTASVVCLLNNFYPREAKVQWKVDNALQSGNSQESVTEQDSKDSTYSLSSTLTLSKADYEKHKVYACEVTHQGLSSPVTKSFNRGEC
notes: copies: 1 + 1 + 2
B11: GpH7-A5/GpH7-B3 variant L234_13S/GpL16-k0 (antibody, human IgG1, kappa)
heavy 1: not shown
heavy 2: not shown
light: DIVMTQSPLSLPVTPGEPASISCQASESLVHSNRNTYLHWYLQKPGQSPQLLIYKVSNRFSGVPDRFSGSGSGTDFTLKISRVEAEDVGVYYCSQNTHVPPTFGQGTKVEIERTVAAPSVFIFPPSDEQLKSGTASVVCLLNNFYPREAKVQWKVDNALQSGNSQESVTEQDSKDSTYSLSSTLTLSKADYEKHKVYACEVTHQGLSSPVTKSFNRGEC
notes: copies: 1 + 1 + 2
B12: GpH7-A5/GpH7-B3 variant L234_14T/GpL16-k0 (antibody, human IgG1, kappa)
heavy 1: not shown
heavy 2: not shown
light: DIVMTQSPLSLPVTPGEPASISCQASESLVHSNRNTYLHWYLQKPGQSPQLLIYKVSNRFSGVPDRFSGSGSGTDFTLKISRVEAEDVGVYYCSQNTHVPPTFGQGTKVEIERTVAAPSVFIFPPSDEQLKSGTASVVCLLNNFYPREAKVQWKVDNALQSGNSQESVTEQDSKDSTYSLSSTLTLSKADYEKHKVYACEVTHQGLSSPVTKSFNRGEC
notes: copies: 1 + 1 + 2

Target: T1, FcγRIIIa (human, UniProt P08637 17-208)
T1 construct: extracellular domain; also called 3a; FcγRIIIa extracellular domain
Assay: SPR (Biacore);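 also: antibody variants captured on an SPR sensor chip, with FcγRIIIa passed over as analyte in HBS-EP+ buffer at 25 °C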

T1 sequence (P08637 other isoform, or with tags, fused parts or gaps): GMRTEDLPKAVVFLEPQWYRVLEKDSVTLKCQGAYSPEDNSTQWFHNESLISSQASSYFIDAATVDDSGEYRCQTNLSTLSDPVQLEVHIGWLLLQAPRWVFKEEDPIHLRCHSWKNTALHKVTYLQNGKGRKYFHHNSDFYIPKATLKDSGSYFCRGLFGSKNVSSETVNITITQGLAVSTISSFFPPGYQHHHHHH

First: B1
Second: B2
The “He/Con 3a” value of the first is higher: 132 % of GpH7-A5/GpH7-B3/GpL16-k0 for the first, 55.8 % of GpH7-A5/GpH7-B3/GpL16-k0 for the second.

First: B3
Second: B4
The “He/Con 3a” value of the first is lower: 69.7 % of GpH7-A5/GpH7-B3/GpL16-k0 for the first, 88.3 % of GpH7-A5/GpH7-B3/GpL16-k0 for the second.

First: B5
Second: B6
The “He/Con 3a” value of the first is higher: 114 % of GpH7-A5/GpH7-B3/GpL16-k0 for the first, 85.1 % of GpH7-A5/GpH7-B3/GpL16-k0 for the second.

Compared with B7, B8 is higher in “He/Con 3a” value: 82.9 % of GpH7-A5/GpH7-B3/GpL16-k0 for the first, 99.5 % of GpH7-A5/GpH7-B3/GpL16-k0 for the second.

First: B9
Second: B10
The “He/Con 3a” value of the first is higher: 113 % of GpH7-A5/GpH7-B3/GpL16-k0 for the first, 111 % of GpH7-A5/GpH7-B3/GpL16-k0 for the second.

Compared with B11, B12 is higher in “He/Con 3a” value: 68.1 % of GpH7-A5/GpH7-B3/GpL16-k0 for the first, 69.8 % of GpH7-A5/GpH7-B3/GpL16-k0 for the second.
